Our source for the protein production values is a protein production outcome set (Wang et al. 2014).

The data set is described as follows: label from the status in PepcDB records.
Consider “MDNQHNQNHIMGTLQWFIFLLANSIALPIVVGGLFHLTTEEIFYLMQRTFFVVGISSFLQGWLGHRLPIADGPAGSWVGVFTVLAYATAGQDQLHSTLQILELGMIISGIILIGLGVTGFIGRILFLFTPLVTGTFLLLLCLQLSGVFLKGMLGITATISQIDGFTAMIAFSIFLFVIILSNFGKGFVKSYAVLIGLISGWIIFLIAGKVTIPSQVTHFVQLPHIFAWGLPKWNTGMAVSSFVMVCILVSNTVAAIIAINQATIHKATIEQKQLKDGTWVGGISHIISSVFSTVGVVPLPATAGFIRLTKQKYIRSFLMACALLVVMSLFPSIIRYLASLPSAVASAVLMASFVQLIGIGFNNIKQVPMSERNVTILGVAVLFGSGVMFLPSGALQSLPSVMQYIFGNGLFVGTVVSILLEQIWRVGK”, for which the protein production entry is given as “not failed”.

As for “MDPEETSVYLDYYYATSPNSDIRETHSHVPYTSVFLPVFYTAVFLTGVLGNLVLMGALHFKPGSRRLIDIFIINLAASDFIFLVTLPLWVDKEASLGLWRTGSFLCKGSSYMISVNMHCSVLLLTCMSVDRYLAIVWPVVSRKFRRTDCAYVVCASIWFISCLLGLPTLLSRELTLIDDKPYCAEKKATPIKLIWSLVALIFTFFVPLLSIVTCYCCIARKLCAHYQQSGKHNKKLKKSIKIIFIVVAAFLVSWLPFNTFKFLAIVSGLRQEHYLPSAILQLGMEVSGPLAFANSCVNPFIYYIFDSYIRRAIVHCLCPCLKNYDFGSSTETSDSHLTKALSTFIHAEDFARRRKRSVSL”, the protein production result is listed as “failed”.

“MDPEIQPPPGKAEIKAKIWKLKTAPKIKHFLWKLLSGALATGDNLKRRHIRNHPQCHRCCQEDETSQHLFFDCFYAQQVWRASGIPHQELRTTGITMETKMELLLSSCLANRQPQLFNLAIWILWRLWKSRNQLVFQQKSISWQNTLQRARNDVQEWEDTNTYVQSLNQQVHSSRHQQPTMARTKWQRPPSTWIKYNYDGAFNHQTRNAKAGWLMRDENGVYMGSGQAIGSTTSDSLESEFQALIIAMQHAWSQGYRKVIFEGDSKQVEELMNNEKLNFGRFNWIREGRFWQKRFEEAVFKWVPRTNNQPADILAKHHLQPNQSFKFHYYVPAFITSTLYYDH”: the protein production result is recorded as “failed”.

As for “MDPEVFAQARLRMDQLTKPPRALGYLEEVALRLAALQGRVKPELGRGAVVVAAADHGVVAEGVSAYPQEVTRQMVLNFLRGGAAINQFALAADCAVYVLDVGVVGELPDHPGLLKRKVRPGTANLAQGPAMTPEEAERALLAGREAARRAIAEGATLLAAGDMGIGNTTAAAALTAALLGLPPEAVVGRGTGVGEEGLRRKRQAVARALARLHPGMGPLEVAAEVGGLELVAIAGIYLEGYEAGLPLVLDGFPVTAGALLAWKMAPGLRDHLFAGHLSREPGHRHQLEALGLRPLLDLDLALGEGTGAVLAMPLLRAAARILHMATFQEAGVSRG”, the protein production result is recorded as “not failed”.

Regarding “MDPLALLRKAGLEAEGPALPLHGGDISRVWRVGRFVVKTAQDPPPGLFRAEARGLQALAERGVRVPQVHWVGEEGLVLAYLEPGPEDWEGLARTLAALHRRREGSYLAEPGFLGTFPLPGREGGEWTAFFYERCVLPLLEATWDRLQGLGPKVEALYRRPLPAEGPAPLHGDLWHGNVYFAREGPALLDPSFFVGERGVDLAMMRLFGGFPRRFWEVYGELYPVPEEVERALPRYQVYYLLAHVHFFGQGYLGALWRAISAS”, the protein production result is on record as “failed”.

For “MDPLEDVLTLLKTRSHLSASLVAGGRWAVRFDAPRVVKFNAVRRGTCQLEVDGIDEPIDLAEGDCYLLTRPRSFTLRSDPETAPVDGGAVFARAEDGIARAGQGDDVFLIGGGFSFGTRAQELLLDRLPPIVHVPADTPHAETVQWALTAIDQELTHRPMASTLIAEHLAVIMLVHVLRLHLERAPHAVSGWLAGLADPVVATALTCLHRDPARSWTVADLADTAAVSRSTLAARFKATVGQGPLEYLTRWRIELAARQLREGNATLASIAHSVGYGSESALSVAFKRVLGMPPGDYRKHPTMP”, the protein production entry was “failed”.

Consider “MDPSAPALDSAFWITTGAILLLLILSGFFSGSETALTAASRGKLRSQADKGSKGAQKALAITDDNERLIGSVLLGNNLVNILAASLATALFTRAFGESGVALATLVMTLLVLIFAEVLPKTYAITNSEKAAAAVAPIIGVVVMVFSPVVALVRLLVRGVLRLFGVRIDPDSHIMAVREEIAGALYLGHSEGVVEKEDRDRILGALDLAERTVEEIMLHRSNIVMLDADAEPETILEHCLQSPHTRLPVYRGEPENIIGVVHAKDLFRAMYAQVGGSEGHTARLKDFDISRVANAPYFVPETTTLDDQMRAFLRMRSHFALVVDEYGSLRGLITLEDILEEIVGEITDEFDPAAEMPVTRSDDGQFLVDGAMTIRDVNRAMDWSLPDDEANTVAGLVIHEAQMIPTVGQVFAFHGFRFEVTGREGNRITGLKIRPL”, for which the protein production result was “failed”.

Turning to “MDQNTTPAPGLRETKKRETRQLISDHATRLFIERGFEHTTIAEIADAARVAKKTVTNYFPRKEDLALDHQDEFVAALAATVTARGAGETPLTALRHAFLAAVAAQDPVAGFAGQAFTRMIADSPTLTACLRGLHDRREEALTAALAGTTDTPPDDITPRTAAALLGGVHRVLFNRIQELTLAGRATPEIAEVLAREAPRAFDLLTPALAEYGRRP”, the protein production entry was “not failed”.

In the case of “MDRDLLRQSLNCHGSSLLSLLRSEQQDNPHFRSLLGSAAEPARGPPPQHPLQGRKEKRVDNIEIQKFISKKADLLFALSWKSDAPATSEINEDSEDHYAIMPPLEQFMEIPSMDRRELFFRDIERGDIVIGRISSIREFGFFMVLICLGSGIMRDIAHLEITALCPLRDVPSHSNHGDPLSYYQTGDIIRAGIKDIDRYHEKLAVSLYSSSLPPHLSGIKLGVISSEELPLYYRRSVELNSNSLESYENVMQSSLGFVNPGVVEFLLEKLGIDESNPPSLMRGLQSKNFSEDDFASALRKKQSASWALKCVKIGVDYFKVGRHVDAMNEYNKALEIDKQNVEALVARGALYATKGSLNKAIEDFELALENCPTHRNARKYLCQTLVERGGQLEEEEKFLNAESYYKKALALDETFKDAEDALQKLHKYMQVIPYFLLEI”, the protein production result is “failed”.

Turning to “MDREAFVQTLTACRLCPRLVAWREEVVGRKRAFRGEPYWARPVPGFGDPEARILLFGLAPGAHGSNRTGRPFTGDASGAFLYPLLHEAGLSSKPESLPGDDLRLYGVYLTAAVRCAPPKNKPTPEELRACARWTEVELGLLPEVRVYVALGRIALEALLAHFGLRKSAHPFRHGAHYPLPGGRHLLASYHVSRQNTQTGRLTREMFLEVLMEAKRLAGL”, the protein production entry is reported as “not failed”.

Take “MDRHTTEGWRRWAARLGAAAMALLLAACAAPRQQAASVDELPSWNDGPSRTAIVEFVRAVTRSGGPDFVAADERIAVFDNDGTLWSEQPMYFQMLFALDRVKSMAPRHPDWARRQPFKAALQDDHAALAKGGDVALMKIVGATHTDMSTDTFTRSVRYWASTARHPRFDRLYTELTFAPMRELLDYLRAHGFKTYIVSGGETEFMRSWTQQAYGIPPEQVIGSSFVTTYGVRDGEPTLWRHGKLEFNDDGPGKPVAIQRYIGRRPILAFGNSDGDLQMLQWTAAGDGKRFAGLVHHTDAQREWAYDRDSRIGRLDRALDEARRQDWTVVDMKTEWKRVYAFEQP”: the protein production entry was “not failed”.

As for “MDRIDAMKVFVAAIDEGSLAGAARRLKRSPTAVSRALSFLEAHVGVELLHRTTRTLKLSEAGQRYAAACRRVLTDLEEADMLAGGERSAPRGMLTISSPPILGEEILRPILDDFLDLYPTVSVRLLLLDRFVNLVDEGVDIALRIGQLADSSLISTRLGGDVRRVVVASPRYLANHPRIEEPADLDKHQILAFTNFGLESWSFTPAKGSSVPRTIQFTPRCIVNSVRAAAASAAAGRGLTRLYSYHVAEYVRDGRLEIVLADAEHPPLPAHLIAPQGRMSVPKVRAFVDFAAPRLRSEFARMAAEAGTLT”, the protein production entry is “failed”.

Turning to “MDRLKAMQVFVEVADRGSLSAAAMHLGMSRAMVSRYLAELEAWVGVRLLHRTTRRLSLTPAGSETLPRCRRMLEMVGDMREAVAAPDAEPRGLLRVTAAMSFGGAQLAEAVAEFVRRHPAASIDLLLVDRAVNLVEERVDLAVRITNDLDPNLIGRRLADCRSVVCAAPQYLQQHGAPARAEDLSLHNCLTHSYFGRSLWRFERAGEPVEVPVGGNITANETDVLMRAALAGAGIVMLPTYLAAGQIAAGTLRPLLPDCAPPVLGIHGVYVSRKQMPLILRTMLDFLAERFNPAPWDAALEGR”, the protein production entry is given as “failed”.

With “MDRLSDFERLTAEIKSLKESLKEKIDKVLSRSVKEASETSEEKKEQSEIAEEGNEDGDNVLVSSLEDEIDSKEEEVLAASCRLLNMFRELDCTFDGPERRMGRLNLNEITEACSRHIVTAMETEQETLNRAISISNAWKHQVSALFNGGIEGEQIKKDLQRLKASSGDEVYWLIRKAFREARVALRTNVYMKPWNLEERREATLMELLGPLPEIARRRLQGRPRRDDCC”, the protein production entry is reported as “failed”.

With “MDRMAVAEEQILLERVRRKIEEVNASGQSQLSPIQEHISFTLLIYAPLIDDELQQAYFKCSNECFEKRRKPEVTTNCVELCRVPVAKSQQQFDSDMAKFQDRMNRSLMVCQDKFEAAKLLNMNRIDAAKDMEGCVNDAAAALLGG”, the protein production result is “failed”.

With “MDRRLKKCSTSTDVESVHDVSKVTDPLQKAKRELDNVEIKEKQKKQKNQNETSEKETKKFSTVYEKFNDTIKELDRVSGTCPIRPAIPFTPPKEKVEPIYHNECNFDDKAHLGVSDSALFVQGFDTSHPRHEIKTALWNHFSSCGKVYLIYVPIACSTGASVGYAFIDMKNETKGLTLNGSHLGGRKIDVMFAIDREEFYFSSNLKHCQRCRNYRPWLVLKAMSDACFEYHQRIKPRIVGTPHSKIGRFTAIIGRRSYS”, the protein production entry is reported as “failed”.

Take “MDRRVTRRGVLAAAGIALAGCTDNGDDQPVRTPLPDEEREPLSNTWRSLGRDDGNTGAVAGIAGPYIEVAAEWQFDVGGAVIGGPVFDENTLYAGTADGEVYALDTHVGAERWSFSADGPVSTTPVVDDGLVAVGSSDGHIYGIDADDGTELWRFDTAVRVDSSPAIDDRYVYAGSVSNAAYAIDRTNGELHWRFDADGSVLASPAVGDETVYVASTDHNVYAIDPDSGEADWQFTTGGEISVAPTLVGDRLYVGSRDSSVYAIDTGSGEGRWSFGLEAAVASSPAVLGDRLFVGAADHNLYALGIGDDSPEGLWRSPTPGAAVGNPAVTDDHVFFGGRDGAVRALRTDGGDRSWEHDVDGGIQGGPALTDRWLYVGTDAGTVYAFRAG”: the protein production result is reported as “failed”.

On to “MDRSYAVFGLGEFGRSVSYELMEIGADVLAVDKNENKITAIADDVTMAISIDALNEMAYEKLGLNNMDGVVVSMSGNLSASIMAIIAAKDAGVPLVIAKASDDTQRTIFKKVGADRVVIPERDGAVRTAHNLVAKNFLDYIELSDKISIIEINVKDEWLHKPLAELNLRSKYGLNVIAIRRNNDLQTDIGPNLTFDKGDTILVVTDKHDLGL”, for which the protein production entry is recorded as “failed”.

Regarding “MDRTLTHQPQEYAVSVSVGEVKLKGNLVIPNGATGIVLFAHGSGSSRYSPRNRYVAEVLQQAGLATLLIDLLTQEEEEIDLRTRHLRFDIGLLASRLVGATDWLTHNPDTQHLKVGYFGASTGGGAALVAAAERPETVQAVVSRGGRPDLAPSALPHVKAPTLLIVGGYDLPVIAMNEDALEQLQTSKRLVIIPRASHLFEEPGALTAVAQLASEWFMHYLR”, the protein production entry is “not failed”.

Consider “MDSASQDINLNSPNKGVLSDFMTDVPVDPGVVHRTPVVEGLTEGEEEELRAELAKVEEEIVTLRQVLAAKERHCGELKRRLGLSTLGELKQNLSRSWHDVQVSTAYVKTSEKLGEWNEKVTQSDLYKKTQETLSQAGQKTSAALSTMGSAISRKLGDMSSYSIRHSISMPVMRNSATFKSFEDRVGTIKSKVVGGRENGSDNLPPSPGSGDQTLPDHAPF”, for which the protein production result is given as “failed”.

As for “MDSDFHVKPEIRILGIDDSALLNEKVMIVGTVFRGGDWIDGVLRSEITRDGLDATEVMVTMIKNSRHHNQLRVIMLDGITYGGFNVVDIEELYRETGLPVIVIMRSCPDFEKIRSALKHFSDGEERWKIIKKAGKIEKLITGRNGTPIYIQKAGIGAKNVEKIIRLTSIRSSIPEPLRVAHLIATGITLGESRGKA”, the protein production result is recorded as “failed”.
